The text below walks through data of the nanobody polyreactivity screen of Harvey et al. (2022).

This series is described as follows: yeast display, Sf9 membrane polyspecificity reagent, FACS + sequencing; frameworks hold sequencing errors. The procedure, abridged: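 A synthetic nanobody library was expressed on Saccharomyces cerevisiae BJ5465 by galactose induction for 36–48 hours. The library was stained for 1 hour at 4 °C with 10% biotinylated, detergent-solubilized Sf9 membrane reagent and enriched with streptavidin microbeads before FACS. Low and high (top ~1%) gates were set on anti-HA fluorescence for expression and streptavidin fluorescence for reagent binding, and each polyreactivity label reflects the gate of origin.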
As for “QVQLVESGGGLVQAGGSLRLSCAASGSTFTVYDMGWYRQAPGKERELVAGISRRGSSTYYADSVKGRFTISRDNAKNTVYLQMNSLKPEDTAVYYCAARGAVIRYPDKRYPVRYDYWGQGTQVTVSS”, the “polyreactivity (PSR sort gate)” value is on record as “high polyreactivity”. For “QVQLVESGGGLVQAGGSLRLSCAASGGIFGRNAMGWYRQAPGKERELVASISKSGGSTYYADSVKGRFTISRDNAKNTVYLQMKSLKPEDSAVYYCAARYSYFNWDNYYWGQGTLVTVSS”, the “polyreactivity (PSR sort gate)” value is listed as “high polyreactivity”.

Regarding “QVQLVESGGGLVQAGGSLRLSCAASGYTFKAYAMGWYRQAPGKERELVAAISWSGARTYYADSVKGRFTISRDNAKNTVYLQMNSLKPEDTAVYYCAASNAVYAGRSYRDEFWGQGTQVTVSS”, the “polyreactivity (PSR sort gate)” value is “high polyreactivity”. Regarding “QVQLVESGGGLVQAGGSLRLSCAASGRIFYPYAMGWYRQAPGIERELVAAIDKGGGSTYYADSVKGRFSISRDNAKNTVYVQMNSLKPEDTAVYYCAAGWEYPYDYWGQGTQVTVSS”, the “polyreactivity (PSR sort gate)” value was “low polyreactivity”. For the sequence “QVQLVESGGGLVQAGGILRLSCAASGRIFCSYAMGWYRQAPGKERELVAAITRGASTNYADSVKGRFTISRDNAKNIVYLQMNSLKPEDTAVYYCAAGWGRYPILGYYYWGQGTQVTVSS”, the “polyreactivity (PSR sort gate)” value is listed as “high polyreactivity”. In the case of “QVQLVESGGGLVQAGGSLRLSCAASGSIFDLYAMGWYRQAPGKERELVAAINWTGGSTYYADSVKGRFTISRDNAKNTVYLQMNSLKPEDTAVYYCAASYYYGTEHYDYWGQGTQVTVSS”, the “polyreactivity (PSR sort gate)” value is reported as “low polyreactivity”. The value for “QVQLVESGGGLVQAGGSLRLSCAASGRIFSRYAMGWYRQAPGTERELVAAISASGGSTYYADSVKGRFTISRDNAKNTVYLQMNSLKPEDTAVYYCNAYQTSTTLFPGYGYWGQGTQVTVSS” was “low polyreactivity”. For “QVQLVESGGGLVQAGGSLRLSCAASGRTLSFYTMGWYRQAPGKERELVAAISSRTGSTYYADSVKGRFTISRDNAKNTVYLQMNRLKPEDTAVYYCAAASRAFAGSGHYYWGQGTQVTVSS”, the “polyreactivity (PSR sort gate)” value is on record as “high polyreactivity”. As for “QVQLVESGGVLVQEGGSLSLSCTASRSIFLKYAMGWYRQAPGKERELVAAISSRDASTYYADSVKGRFSISRDNAKKSVYLQMNSLKPEDTAVYYCNVAQNYWAGLYDYWGQGTQVTVSS”, the “polyreactivity (PSR sort gate)” value is “high polyreactivity”.

With “QVQLVEEGGGLVQAGGSLSLSCAASGRIFKTNSMGWYIQAPGKERELVAGSTDSGDSTYYADSVKGRFTISRDNAKNTVYLQMNSLKPEDTAVYYCATDPASPYIYDYWGQGTQVTVSS”, the “polyreactivity (PSR sort gate)” value is given as “low polyreactivity”. For the sequence “QVQLVESGGGLVQAGGSLRLSCAASGSIFWFNAMGWYRQAPGKEREFVASISRSGGTTYYADSVKGRFTISRDNAKNTVYLQMNSLKPEDTAVYYCNARAYGNGLGTGYFGKHRYDYWGQGTQVTVSS”, the “polyreactivity (PSR sort gate)” value is reported as “low polyreactivity”. As to “QVQLVESGGGLVQAGGSLRLSCAASGRIFTRYAMGWYRQAPGKERELVAVITRSGGSTYYADSVKGRFTLSRDNAKNTVYLQMNSLKPEDTAVYYCAAKYYGEMYYWGQGTQVTVSS”, the “polyreactivity (PSR sort gate)” value was “low polyreactivity”.

“QVQLVETGGGLVQAGGSLRLSCAASGFTFSYYAMGWYRQAPGKERELVAAISWSGGSTYYADSVKGRFTISRDNAKNTVYLLMNSLKPEDTAVYYSNKVGRAIGPYDYWGQGTQVTVSS”: the “polyreactivity (PSR sort gate)” value is “high polyreactivity”. As for “HVQLVESGGGLVQAGGSRRLSCAASGRIFYGYAMGWYRQAPGKERELVAGISYRGARTYYADSVKGRFTISRDNAKNTVYLQMNSLKPEDTAVYYCNAVPYYPFAFGALDYWGQGTQVTVSS”, the “polyreactivity (PSR sort gate)” value is “high polyreactivity”. Take “QVQLVESGGGLVQAGGSLRLSCAASGFIIGVNDMGWYRQPPGKERELVAAITSGGNTNYADSVKGRFTISRDNAKNTVYLQMNSLKPEDTAVYYCIVDTRLPMDYWGQGTQVTVSS”: the “polyreactivity (PSR sort gate)” value is reported as “low polyreactivity”. For “QVQLVESGGGLVQAGGSLRLSCAASGFTFWSYAMGWYRQAPGKERELVAGITIDGNTYYADSVKGRFTISRDNAKNTVYLQMNSLKPEDTAVYYCATPVYRSTYEYDYWGQGTQVTVSS”, the “polyreactivity (PSR sort gate)” value is “low polyreactivity”.

As to “QVQLVESGGGLVQAGGSLRLSCAASGFTFNQYAMGWYRQAPGKERELVAAITGSGGSTYYADSVKGRFTISRDNAKNTVYLQMNSLKPEDTAVYYCNRDRFSRFYWGQGTQVTVSS”, the “polyreactivity (PSR sort gate)” value is listed as “high polyreactivity”. The value for “QVQLVESGGGLVQAGGSLRLSCAASARTFRQYAMGWYRQSPGKERELVAAIRTNGGRTYYADSVKGRFTISRDNAKNTVYLQMNSLKPEDTAVYYCAVRPRPGYYYWGQGTQVTVSS” was “high polyreactivity”; that for “QVQLVESGGGLVQAGGSLRLSCAASGSIFWYNTMGWYRQAPGKERELVAAISSSGGTTYYADSVKGRFTISRDNAKNTVYLQMNSLKPEDTAVYYCAATVGDAYYEYDYWGQGTQVTVSS” was “low polyreactivity”. As for “QVQLVESGGGLVQAGGSLRLSCAASGRILGGNTMGWYRQAPGKERELVAGISYSGGRTYYADSVKGRFTISRDNAKHTVYLQMNSLKPEDTAVYYCAAEYDWYSYQLDYWGQGTQVTVSS”, the “polyreactivity (PSR sort gate)” value is “high polyreactivity”.

As for “QVQLVESGGGLVQAGGSLRLSCAASGSILYVYAMGWYRQAPGKERELVAAISFSGGSTYYADSVKGRFTISRDNAKNTVYLQMNSLKPEDTAVYYCAAALGPGAWYGDKYEYEYWGQGTQVTVSS”, the “polyreactivity (PSR sort gate)” value is “low polyreactivity”. For “QVQLVESGGGLVQAGGSLRLSCAASGLTFQYNAMGWYRQAPGKERELVAAISWSGGSTYYADSVKGRFTISRDNAKNTVYLQMNSLNPEDTAVYYCAAVYLHKSYARRMDYWGQGTQVTVSS”, the “polyreactivity (PSR sort gate)” value is on record as “low polyreactivity”. Turning to “QVQLVESGGGLVQAGGSLRLSCAASGSTFSDNAMGWYRQAPGKDRELVAAINYSDGSTNYADSVKGRFTISRDNAKNTVYLQMNSLKPEDTAVYYCAVDIYFWCYGWWGPYDYWGQGTQVTVSS”, the “polyreactivity (PSR sort gate)” value is recorded as “low polyreactivity”. With “QVQLVESGGGLVQAGGSLRLSCAASGRTFQPYAMGWYRQAPRKERELVASISRSGGRTYYADSVKGRFTISRDNAKNTVYLQMNSLKPEDTAVYYCADDIPYTRSIKYYYWGQGTQVTVSS”, the “polyreactivity (PSR sort gate)” value is listed as “high polyreactivity”. With “QVHLVESGGGLVQAGGSLRLSCAASGFIFLHYAMGWYRQAPGKERELVAAINKSGGSTYYADSVKGRFTSSRDNAMYTDYLQMNSLKPEDTAVYYCNAVYYWFIGDYWGQGTQVTVSS”, the “polyreactivity (PSR sort gate)” value is “high polyreactivity”. As to “QVQLVESGGGLVQAGGSLRLSCAASGGIFTKNAMGWYRQAPGKERELVAGISRTGGNTYYADSVKGRFTISRDNAKYTVYLQMNSLIPEDTAVYYCNALYGGPHRLRYDYWGQGTQVTVSS”, the “polyreactivity (PSR sort gate)” value is listed as “low polyreactivity”. On to “QVQLRESGGGLVQAGGSLRLSCAASGRIFGNYSMGRYRQAPGKEREMVAAISGGGSTYYADSVKGRFTISRDNAKNTVYLQMTSLKPEDTAVYYCADRFLWSVFCRKGGYWGQGTQVTVSS”, for which the “polyreactivity (PSR sort gate)” value is reported as “low polyreactivity”.

As to “QVQLVDSGGGLVQAGGSLRLSCAASGFTIPYYAMGWYRQAPGKERELVAAISSGGRTNYADSVKGRFTISRDNAKNTVYLPMNSLKPEDTAVYYCATRSYVFAWEFYYWGQGTQVTVSS”, the “polyreactivity (PSR sort gate)” value is recorded as “high polyreactivity”. For “QVQLVESGGGLVQAGGSLRLSCAASGSTFSAYTMGWYRQAPGKERELVARITNGGSTYYADSVKGRFTISRDNAKNTVYLQMNSLKPEDTAVYYCAAQLGWWGSGYWGQGTQVTVSS”, the “polyreactivity (PSR sort gate)” value is recorded as “high polyreactivity”. With “QVQLVESGAGLVQAGGSLRLSCASSGYIFDRYAMGWYRQAPGKERELVAAISGRGGSTYYADSVKGRFTISRDNAKYTVYLKMNSLKPEDTAVYYCARDVYVRYGQRARYDSWGQGTQVTVSS” the entry was “high polyreactivity”. As for “QVQLVEAGGGLVQAGGSLRLSCAASAFTFSPTAMGWYRQAPGKERELGAAIDWSGDRTYYADSVKGRFTISRAHAKNTVYLQMNSLKPEDTGVYYCNVVRRSPGDYSYYYWGQGSQVTVSS”, the “polyreactivity (PSR sort gate)” value is given as “low polyreactivity”. As to “QVQLVESGGGLVQAGGSLRLSSAASGRTFYSNAMGWYRQAPGKERELVAGISKSGGITYYADSVKGRFTISRDNAKNTVYLQMNRLKPEDTAVYYCAARRRGRFYYWGQGTQVTVSS”, the “polyreactivity (PSR sort gate)” value is listed as “high polyreactivity”. On to “QVQLVESGGGLVQAGGSLRLSCAASGFTFAVYAMGWYRQAPGKERELVAAIDSSDGSTSYADSVKGRFTISRDNAKNTVYLQMNSLKPEDTAVYYCAGDQYWWFYEYEYWGQGTQVTVSS”, for which the “polyreactivity (PSR sort gate)” value is listed as “low polyreactivity”. Regarding “QVQLEDSGGGLVQAGGSLRLSCAASGFIFGSYTMGWYRQAPGKERELVAVITWSGSSTYYADSVKGRFTISRDNAKYPVYLQMNSLKPEDTAVYYCNAVKFGGYDYWGQGTQVTVSS”, the “polyreactivity (PSR sort gate)” value is reported as “high polyreactivity”. In the case of “QVQLVESGGGLVQAGGSLRLSSAASGRIFRFYAMGWYRQAPGKERELVAAITSGGSTYYADSVKGRFTISRDNAKNTVYLQMNRLKPEDTAVYYCANYYWGQGTQVTVSS”, the “polyreactivity (PSR sort gate)” value is recorded as “low polyreactivity”. On to “QVQLVESGGGLVQAGGSLRLSCAASGLTFWRYTMGWYRQAPGKERELVAVITYRGGSTYYADSVKGRFTISRDNAKNTVYLQMNSLKPEDTAVYYCAAGRRTYGLTYDYWGQGTQVTVSS”, for which the “polyreactivity (PSR sort gate)” value is “high polyreactivity”. Take “QVQLVESGGGLVQAGGSLRLSCAASGFIFVYYAMGWYRQAPGKERELVAAISGHGGRTYYADSVKGRFTISRDNAKNTVYLQLNSLKPEDTAVYYCAALLYWRGYGYNYWGQGTQVTVSS”: the “polyreactivity (PSR sort gate)” value is recorded as “high polyreactivity”. The value for “QVQLVESGGGLVQAGGSLRLSCAASGRIFSHYAMGLYREAPGKERELVAAITGSGGITYYADSVKGRFTISRDKSKNTVFLQMISLKPEDTAVYYCAADGLSKFDYLGQGTQVTVSS” was “low polyreactivity”; that for “QVQLVESGVGLVQAGGSLRLSCAASGITFVDYGMGWYRQAPGKERELVSAISRSGGSTYYADSVKGRFTISRDNAKNTVYLQMNSLKPEDTAVYYCATVLSRVRNSDKYWGQVTQVTVSS” was “high polyreactivity”. Consider “QVQLVESGGGLVQAGGSLRLSCAAPGSTFQFNVMGWYRQAPGKERELVAAITSGASTYYADSVKGRFTISRDNAKNTVYLQMYSLEPEDTAVYYCAVDYSFLYDYVQRYYYWGQGTQVTVSS”, for which the “polyreactivity (PSR sort gate)” value is given as “high polyreactivity”. Regarding “QVQLVESGGGLVQAGGSLRLSCAASGFTFHYYDMGWYRQAPGKERELVASISWSGGDTYYADSVKGRFTISRDNAKNTVYLQMNSLKPEDTAVYYCAADPTQEVQYLTPYTYDYWGQGTQVTVSS”, the “polyreactivity (PSR sort gate)” value is given as “low polyreactivity”.
